Source: publication PMC6769641

Tests used:
[1] = molecular target: catalase from sweet pepper (Capsicum annuum L.) fruits (Capsicum annuum (endogenous in sweet pepper fruits)) (UniProt Q9M5L6); assay: SEC; FPLC gel filtration on Superose 12 in 50 mM Tris-HCl, pH 8.0; ammonium sulfate fraction (20-80%) of green pepper fruit extract; catalase activity followed in fractions; column calibrated with rubisco, ferritin, aldolase, phosphorylase b and myoglobin
[2] = molecular target: catalase from sweet pepper (Capsicum annuum L.) fruits (Capsicum annuum (endogenous in sweet pepper fruits)) (UniProt Q9M5L6); assay: native gel or EMSA; Hedrick and Smith method: non-denaturing PAGE at 5-7% acrylamide, catalase activity staining in gels; BSA monomer, dimer, trimer and tetramer as molecular weight standards

**Q.** Which results are given for “catalase from sweet pepper (Capsicum annuum L.) fruits (from UniProt Q9M5L6 1-492) (enzyme)”?
**A.** stoichiometry N [1]: 2; stoichiometry N [2]: 2
